Source: paper PMC6367035 (Nature, 2018)

T1: Sec61 (S. cerevisiae) (S. cerevisiae, UniProt P32915 1-480, surface-exposed lysines modified with low-molecular weight polyethylenglycol (MS(PEG)12 methyl-PEG-NHS-ester))
T1 sequence (looked up): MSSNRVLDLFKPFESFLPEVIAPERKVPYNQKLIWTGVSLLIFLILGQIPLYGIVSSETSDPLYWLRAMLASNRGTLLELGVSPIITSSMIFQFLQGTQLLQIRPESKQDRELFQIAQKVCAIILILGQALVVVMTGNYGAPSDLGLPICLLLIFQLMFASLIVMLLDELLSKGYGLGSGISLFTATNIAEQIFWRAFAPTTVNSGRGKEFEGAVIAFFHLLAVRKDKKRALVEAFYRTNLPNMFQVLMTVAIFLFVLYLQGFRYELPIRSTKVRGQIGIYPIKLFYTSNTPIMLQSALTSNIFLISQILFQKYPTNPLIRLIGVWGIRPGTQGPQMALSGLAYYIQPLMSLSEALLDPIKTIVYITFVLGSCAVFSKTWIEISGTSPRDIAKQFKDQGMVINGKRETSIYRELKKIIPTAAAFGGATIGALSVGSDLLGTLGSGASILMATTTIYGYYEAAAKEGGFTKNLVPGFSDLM


molecular target: T1, Sec61 (S. cerevisiae); experiment: cryo-EM structure

Row | Binder | binding result
1 | Sss1 (S. cerevisiae) (natural protein, UniProt P35179 1-80, looked up, surface-exposed lysines modified with low-molecular weight polyethylenglycol (MS(PEG)12 methyl-PEG-NHS-ester)) MARASEKGEEKKQSNNQVEKLVEAPVEFVREGTQFLAKCKKPDLKEYTKIVKAVGIGFIAVGIIGYAIKLIHIPIRYVIV | binds
2 | Sec71 (S. cerevisiae) (natural protein, UniProt P33754 1-206, looked up, glycan (cleaved by Endoglycosidase H); surface-exposed lysines modified with low-molecular weight polyethylenglycol (MS(PEG)12 methyl-PEG-NHS-ester)) MSEFNETKFSNNGTFFETEEPIVETKSISVYTPLIYVFILVVSLVMFASSYRKKQAKKISEQPSIFDENDAHDLYFQIKEMSENEKIHEKVLKAALLNRGAESVRRSLKLKELAPQINLLYKNGSIGEDYWKRFETEVKLIELEFKDTLQEAERLQPGWVQLFVMVCKEICFNQALSRRYQSILKRKEVCIKEWELKINNDGRLVN | binds
3 | Sbh1 (S. cerevisiae) (natural protein, UniProt P52870 1-82, looked up, surface-exposed lysines modified with low-molecular weight polyethylenglycol (MS(PEG)12 methyl-PEG-NHS-ester)) MSSPTPPGGQRTLQKRKQGSSQKVAASAPKKNTNSNNSILKIYSDEATGLRVDPLVVLFLAVGFIFSVVALHVISKVAGKLF | binds
